We go through two substances from PMC11487272.

Assay [1] concerns the target cFLIP^tDED_H7G (cFLIP tandem DED, residues 1-181, H7G) (UniProt O15519). The assay can be described thus: crystal structure.
In assay [2] the target is wild-type cFLIP^tDED as used in the ternary co-purification (UniProt O15519). As to the kind of experiment: cryo-EM structure.

The substance “cFLIP^tDED_H7G (cFLIP tandem DED, residues 1-181, H7G) (from UniProt O15519 1-181) (domain or fragment)” registered a stoichiometry N (molecules in the complex) in assay [1] of 6.
Take “wild-type cFLIP^tDED as used in the ternary co-purification (from UniProt O15519 1-181) (domain or fragment)”: in assay [2], the stoichiometry N (molecules in the complex (Complex D)) is 5, the stoichiometry N (molecules in the complex (Complex E)) turned out to be 6, the stoichiometry N (molecules in the complex (Complex F)) was 8 and the stoichiometry N (molecules in the complex (Complex G)) stood at 4.
